Assay results from patent US20230399394A1 (SUNSHINE GUOJIAN PHARMACEUTICAL SHANGHAI, published 2023).

T1: Human IL-33-his (human, UniProt O95760 112-270, biotinylated with EZ-Link NHS-Biotin where used as IL-33-his-biotin)
T1 construct: Used plain (SPR, cell assays) and biotinylated (ELISA); also called IL-33-his-biotin
T1 sequence: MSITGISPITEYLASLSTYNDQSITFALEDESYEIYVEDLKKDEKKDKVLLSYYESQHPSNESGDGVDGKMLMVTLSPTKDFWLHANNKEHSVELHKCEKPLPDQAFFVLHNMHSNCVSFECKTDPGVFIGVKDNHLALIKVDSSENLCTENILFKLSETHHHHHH

T2: IL-33 mutant protein V67A (human, UniProt O95760 112-270)
T2 construct: Prokaryotic expression
T2 chain: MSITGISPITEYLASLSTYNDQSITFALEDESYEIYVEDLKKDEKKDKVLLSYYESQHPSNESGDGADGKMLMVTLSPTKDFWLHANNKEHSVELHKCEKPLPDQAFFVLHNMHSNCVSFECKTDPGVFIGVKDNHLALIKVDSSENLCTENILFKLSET

T3: IL-33 mutant protein L50A (human, UniProt O95760 112-270)
T3 construct: Prokaryotic expression
T3 chain: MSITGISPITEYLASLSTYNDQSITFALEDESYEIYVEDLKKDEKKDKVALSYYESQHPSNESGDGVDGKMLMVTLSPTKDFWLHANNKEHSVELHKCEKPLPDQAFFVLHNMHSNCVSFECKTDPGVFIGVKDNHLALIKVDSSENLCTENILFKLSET

T4: IL-33 mutant protein Y53A (human, UniProt O95760 112-270)
T4 construct: Prokaryotic expression
T4 chain: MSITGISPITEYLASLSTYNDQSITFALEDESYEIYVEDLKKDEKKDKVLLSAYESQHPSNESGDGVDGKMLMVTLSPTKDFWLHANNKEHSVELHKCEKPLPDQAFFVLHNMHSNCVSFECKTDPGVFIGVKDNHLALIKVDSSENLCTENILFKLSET

T5: IL-33 mutant protein Q57A (human, UniProt O95760 112-270)
T5 construct: Prokaryotic expression
T5 chain: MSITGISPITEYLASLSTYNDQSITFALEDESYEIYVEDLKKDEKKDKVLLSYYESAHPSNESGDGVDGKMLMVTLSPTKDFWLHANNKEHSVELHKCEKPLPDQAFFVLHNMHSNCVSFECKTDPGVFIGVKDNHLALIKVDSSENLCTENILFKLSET


Assays:
Human IL-33-his = biological target: T1, Human IL-33-his; experiment: competition ELISA, antibody mixed with IL-33-his-biotin, ST2 on plate; competitor ST2
Procedure: ST2 is the only receptor for IL-33 that has been discovered so far. As a cytokine, IL-33 exerts its physiological function depending on ST2 signaling pathway, and the blocking activity of antibody can reflect the neutralizing activity thereof. The specific method was as follows: the plate was coated with 2 μg/ml ST2 PBS solution at 4° C. overnight; the plate was washed with PBST for 3 times, then the plated was blocked with 5% skim milk powder at 37° C. for 2 hours; the plate was washed with PBST for 3 times for later use. 20 ng/ml IL-33-his-biotin antigen diluted by 1% BSA was mixed with antibodies to be tested diluted by gradient with 1% BSA at 1:1 equal volume and incubated at 37° C. for […]. The mixture was added to a pre-coated ST2 plate and incubated at 37° C. for 1 h. The plate was washed with PBST for 3 times. HRP-labeled streptavidin secondary antibody was added at 1:8000 and incubated at 37° C. for 0.5 hours. After washing the plate with PBST for 3 times, the plate was patted on the absorbent paper to remove residual droplets as far as possible. 100 μl TMB was added to each well, and the plate was placed at room temperature (20±5° C.) for 5 minutes away from light; 50 μl 2M H₂SO₄ terminating solution was added to each well to terminate the substrate reaction. OD values were read at 450 nm on the microplate reader.

[1] = biological target: T2, IL-33 mutant protein V67A; experiment: ELISA as Example 9; row V67A
Procedure: (§1) SA protein was diluted to 2 μg/mL to coat ELISA plate at 100 μL/well overnight at 4° C. The plate was washed with PBST (PBS containing 0.05% Tween20) for 3 times, and blocked with 2% BSA prepared in PBS at 200 μL/well, at room temperature for 2 h. After the plate was washed twice with PBST, IL-33-his-biotin protein was diluted to 1 μg/mL with 1% BSA prepared in PBST, and was added to ELISA plate at 100 μL/well. The plate was incubated at room temperature for 1 h, and each monoclonal antibody was diluted with 1% BSA prepared in PBST in a 3-fold gradient. The highest concentration of antibody was 10 μg/mL, and the antibody was diluted for 12 gradients. Each diluted monoclonal antibody was added to ELISA wells with 100 μL/well, and the plate was incubated at room temperature for 1 h. Each sample was added to duplicate wells in parallel. The plate was washed with PBST for 3 times, and HRP-anti human IgG Fc secondary antibody prepared with PBST was diluted at an appropriate ratio, and was added to ELISA wells at 100 μL/well. […] Each reaction solution was shaken uniformly and OD450 nm was read on a microplate reader. The data was analyzed and EC₅₀ was calculated.
(§2) Subsequently, according to the experimental method of Example 9, the affinity of the above mutant proteins to 874F7-Hu1 was determined, and IL-33 proteins (WT-1, WT-2, WT-3, and WT-4) without any mutation were set as controls.

[2] = biological target: T3, IL-33 mutant protein L50A; experiment: ELISA as Example 9; row L50A against WT-4
Procedure: as §1, §2

[3] = biological target: T4, IL-33 mutant protein Y53A; experiment: ELISA as Example 9; row Y53A against WT-2
Procedure: as §1, §2

[4] = biological target: T5, IL-33 mutant protein Q57A; experiment: ELISA as Example 9; row Q57A
Procedure: as §1, §2

| IC50 (Human IL-33-his) | EC50 [1] | Affinity decline ratio [2] | Affinity decline ratio [3] | EC50 [4] | Binder |
| --- | --- | --- | --- | --- | --- |
| 0.9 nM | – | – | – | – | 874F7 (antibody, V domains shown, Murine hybridoma antibody purified on Protein G; also called murine antibody 874F7) VH: QVQLKESGPGLVAPSHSLSITCNVSGFSLSKYGVHWIRQIPGRGLDWLGVLRAGGSTGYNSALMSRLSISKDSSKSQVFLKMNDLRTDDTAVYFCVRDHYYYSSYGGFVYWGQGTLVTVSA VL: DIQMTQSPASQSASLGESVTITCLASQTIGAWLAWYRQQPGKSPQLLIYAATRLADGVPSRFSGSGSGTEFSFKINNLQAEDFVSYYCQQLDSSPYTFGGGTRLEM |
| – | 0.11 nM | 28.5 fold | 3.3 fold | 0.12 nM | 874F7-Hu1 (antibody, human IgG4 S228P, kappa, also called 874F7-Hul; humanized antibody 874F7-Hu1) heavy: not shown light: DIQMTQSPSSVSASVGDRVTITCLASQTIGAWLAWYQQKPGKSPKLLIYAATRLADGVPSRFSGSGSGTDFTLTISSLQPEDFATYYCQQLDSSPYTFGQGTKVEIKRTVAAPSVFIFPPSDEQLKSGTASVVCLLNNFYPREAKVQWKVDNALQSGNSQESVTEQDSKDSTYSLSSTLTLSKADYEKHKVYACEVTHQGLSSPVTKSFNRGEC |
